For 21 molecules, Kd, koff and kon results are on record in publication PMC10663500, “High-throughput analysis system of interaction kinetics for data-driven antibody design” (Scientific Reports, 2023).

Numbering of substitutions follows the chain as printed.

First the molecules themselves.
B1: toripalimab Fab L.S25A (Fab, V domains shown)
VH: QGQLVQSGAEVKKPGASVKVSCKASGYTFTDYEMHWVRQAPIHGLEWIGVIESETGGTAYNQKFKGRVTITADKSTSTAYMELSSLRSEDTAVYYCAREGITTVATTYYWYFDVWGQGTTVTVSS
VL: DVVMTQSPLSLPVTLGQPASISCRASQSIVHSNGNTYLEWYLQKPGQSPQLLIYKVSNRFSGVPDRFSGSGSGTDFTLKISRVEAEDVGVYYCFQGSHVPLTFGQGTKLEIK
notes: as the heavy chain of Sm3; light chain of Sm3 with this change; numbers count from the chain's first residue; source: Brevibacillus, culture supernatant (ammonium sulfate precipitate); not shown: 6xHis, C-terminal, kept; 6xHN, C-terminal, kept
B2: toripalimab Fab L.S26A (Fab, V domains shown)
VH: B1 VH
VL: B1 VL with A25S, S26A
notes: as for B1
B3: toripalimab Fab L.N35A (Fab, V domains shown)
VH: B1 VH
VL: B1 VL with A25S, N35A
notes: as for B1
B4: toripalimab Fab L.S28Y (Fab, V domains shown)
VH: B1 VH
VL: B1 VL with A25S, S28Y
notes: as for B1
B5: toripalimab Fab L.N33A (Fab, V domains shown)
VH: B1 VH
VL: B1 VL with A25S, N33A
notes: as for B1
B6: toripalimab Fab L.S32A (Fab, V domains shown)
VH: B1 VH
VL: B1 VL with A25S, S32A
notes: as for B1
B7: toripalimab Fab L.S28A (Fab, V domains shown)
VH: B1 VH
VL: B1 VL with A25S, S28A
notes: as for B1
B8: toripalimab Fab L.G34Y (Fab, V domains shown)
VH: B1 VH
VL: B1 VL with A25S, G34Y
notes: as for B1
B9: toripalimab Fab L.G34A (Fab, V domains shown)
VH: B1 VH
VL: B1 VL with A25S, G34A
notes: as for B1
B10: toripalimab Fab L.I29A (Fab, V domains shown)
VH: B1 VH
VL: B1 VL with A25S, I29A
notes: as for B1
B11: toripalimab Fab L.S32Y (Fab, V domains shown)
VH: B1 VH
VL: B1 VL with A25S, S32Y
notes: as for B1
B12: toripalimab Fab L.N35Y (Fab, V domains shown)
VH: B1 VH
VL: B1 VL with A25S, N35Y
notes: as for B1
B13: toripalimab Fab L.Q27Y (Fab, V domains shown)
VH: B1 VH
VL: B1 VL with A25S, Q27Y
notes: as for B1
B14: toripalimab Fab L.V30Y (Fab, V domains shown)
VH: B1 VH
VL: B1 VL with A25S, V30Y
notes: as for B1
B15: toripalimab Fab L.V30A (Fab, V domains shown)
VH: B1 VH
VL: B1 VL with A25S, V30A
notes: as for B1
B16: toripalimab Fab L.Q27A (Fab, V domains shown)
VH: B1 VH
VL: B1 VL with A25S, Q27A
notes: as for B1
B17: toripalimab Fab L.S25Y (Fab, V domains shown)
VH: B1 VH
VL: B1 VL with A25Y
notes: as for B1
B18: toripalimab Fab L.S26Y (Fab, V domains shown)
VH: B1 VH
VL: B1 VL with A25S, S26Y
notes: as for B1
B19: toripalimab Fab L.N33Y (Fab, V domains shown)
VH: B1 VH
VL: B1 VL with A25S, N33Y
notes: as for B1
B20: toripalimab Fab H.M34Y (Fab, V domains shown)
VH: B1 VH with M34Y
VL: B1 VL with A25S
notes: heavy chain of Sm3 with this change; numbers count from the chain's first residue; as the light chain of Sm3; source: Brevibacillus, culture supernatant (ammonium sulfate precipitate); not shown: 6xHis, C-terminal, kept; 6xHN, C-terminal, kept
B21: toripalimab Fab L.I29Y (Fab, V domains shown)
VH: B1 VH
VL: B1 VL with A25S, I29Y
notes: as for B1

The first assay concerns the target T1, mouse programmed cell death protein 1 Fc fusion protein (mPD-1-Fc), mPD-1 C60S (aa 25-167) (Mus musculus, UniProt Q02242, stabilised).
T1 construct: not cleaved; source: Expi293F, purified (Protein A, SEC; dimeric fraction); not shown: Fc (human), C-terminal, kept
The experiment in a line: SPR; Carterra LSA; Fab from the ammonium sulfate precipitate of the culture supernatant immobilised on a NiHC200M chip; hPD-1 (1-1024 nM) or mPD-1-Fc (4-1024 nM) as analyte, fourfold dilution series, no regeneration; HBS-EP pH 7.4, 25 °C; medians over the spots of a construct, KD = koff/kon. The note with it: one partner purified. The method in brief:
(§1)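 Fabs, ammonium sulfate-precipitated from Brevibacillus supernatants and redissolved in HBS-EP, were captured in duplicate on a NiHC200M chip on a Carterra LSA at 25 °C. Fourfold series of human PD-1 (1–1024 nM) or mouse PD-1-Fc (4–1024 nM) were run without regeneration, with association for 10 min and dissociation for 5 min. Rates were fitted with the kdka model, choosing the better of slow- or fast-dissociation settings, and unconfirmed binders were given kon 10^3 […] and koff 10^−2 s^−1. The dissociation constant KD is koff/kon based on per-construct medians.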
As for B1, the Kd amounted to 65.2 nM, the koff worked out at 0.00369 s⁻¹ and the kon was found to be 56600 M⁻¹ s⁻¹.
On the same counts, the results for B2 are 75 nM, 0.00379 s⁻¹ and 50500 M⁻¹ s⁻¹.
In turn, B3 showed a dissociation constant Kd of 189 nM, a koff of 0.00781 s⁻¹ and a kon of 41200 M⁻¹ s⁻¹.
B4 returned a Kd of 137 nM, a koff of 0.00438 s⁻¹ and a kon of 31900 M⁻¹ s⁻¹.
On the same counts, the results for B5 are 278 nM, 0.0135 s⁻¹ and 48400 M⁻¹ s⁻¹.
Consider B6, for which binding was put at a Kd of 185 nM, the off-rate (koff) was found to be 0.0077 s⁻¹ and the kon came out at 41600 M⁻¹ s⁻¹.
Regarding B7, binding was put at a Kd of 96.3 nM, the koff turned out to be 0.00303 s⁻¹ and the kon stood at 31400 M⁻¹ s⁻¹.
On the same counts, the results for B8 are 154 nM, 0.00613 s⁻¹ and 39900 M⁻¹ s⁻¹.
Turning to B9, the Kd came out at 202 nM, the koff amounted to 0.00961 s⁻¹ and the on-rate constant (kon) stood at 47500 M⁻¹ s⁻¹.
In turn, B10 registered a Kd of 64 nM, a koff of 0.00268 s⁻¹ and a kon of 41800 M⁻¹ s⁻¹.
On the same counts, the results for B11 are 95.6 nM, 0.00346 s⁻¹ and 36100 M⁻¹ s⁻¹.
The matching figures for B12: 194 nM, 0.00881 s⁻¹ and 45500 M⁻¹ s⁻¹.
The matching figures for B13: 216 nM, 0.0122 s⁻¹ and 56500 M⁻¹ s⁻¹.
Molecule B14 displayed a Kd of 173 nM, a koff of 0.00719 s⁻¹ and a kon of 41500 M⁻¹ s⁻¹.
B15 came in with a Kd of 255 nM, a koff of 0.00954 s⁻¹ and a kon of 37400 M⁻¹ s⁻¹.
In turn, B16 yielded a Kd of 219 nM, a koff of 0.00876 s⁻¹ and a kon of 40100 M⁻¹ s⁻¹.
On the same counts, the results for B17 are 125 nM, 0.00412 s⁻¹ and 32900 M⁻¹ s⁻¹.
Regarding B18, the Kd came out at 152 nM, the koff was 0.00675 s⁻¹ and the kon is 44500 M⁻¹ s⁻¹.
B19 showed a Kd of 192 nM, a koff of 0.00979 s⁻¹ and a kon of 50900 M⁻¹ s⁻¹.
On the same counts, the results for B20 are 164 nM, 0.00793 s⁻¹ and 48500 M⁻¹ s⁻¹.
On the same counts, the results for B21 are 80.6 nM, 0.00575 s⁻¹ and 71400 M⁻¹ s⁻¹.

For a further assay, the target named is T2, human programmed cell death protein 1 (hPD-1) C93S (aa 24-167) (Homo sapiens, UniProt Q15116, C93S).
T2 construct: made as a fusion with a TEV site and human Fc; the Fc was cut off with TEV protease; source: Expi293F, purified (Protein A, TEV cleavage of Fc, SEC; monomer fractions); not shown: Fc (human), C-terminal, cleaved
T2 sequence (Q15116 24-167 C93S): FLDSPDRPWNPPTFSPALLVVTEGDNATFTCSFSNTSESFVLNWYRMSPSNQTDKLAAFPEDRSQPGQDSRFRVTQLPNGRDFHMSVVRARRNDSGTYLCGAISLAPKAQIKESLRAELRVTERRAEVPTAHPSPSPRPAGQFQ
The assay is described as above. The note with it: one partner purified. The method, boiled down:
as §1
The molecule B1 displayed a Kd below 0.503 nM, an off-rate (koff) below 1e-05 s⁻¹ and a kon of 19900 M⁻¹ s⁻¹.
On to B2, for which binding was characterised by a dissociation constant (Kd) of 0.802 nM, the koff is 1.95e-05 s⁻¹ and the kon worked out at 24300 M⁻¹ s⁻¹.
On the same counts, the results for B3 are below 1.31 nM, below 1e-05 s⁻¹ and 7640 M⁻¹ s⁻¹.
In turn, B4 showed a Kd below 0.792 nM, a koff below 1e-05 s⁻¹ and an on-rate constant (kon) of 12600 M⁻¹ s⁻¹.
On to B5, for which the Kd was below 0.341 nM, the koff is below 1e-05 s⁻¹ and the kon came out at 29300 M⁻¹ s⁻¹.
On the same counts, the results for B6 are below 1.35 nM, below 1e-05 s⁻¹ and 7410 M⁻¹ s⁻¹.
B7 displayed a Kd below 0.632 nM, a koff below 1e-05 s⁻¹ and a kon of 15800 M⁻¹ s⁻¹.
On the same counts, the results for B8 are below 0.445 nM, below 1e-05 s⁻¹ and 22500 M⁻¹ s⁻¹.
On the same counts, the results for B9 are 2.35 nM, 4.8e-05 s⁻¹ and 20500 M⁻¹ s⁻¹.
In turn, B10 showed a Kd below 0.466 nM, a koff below 1e-05 s⁻¹ and a kon of 21500 M⁻¹ s⁻¹.
In turn, B11 came in with a Kd below 0.678 nM, a koff below 1e-05 s⁻¹ and a kon of 14800 M⁻¹ s⁻¹.
On the same counts, the results for B12 are below 0.431 nM, below 1e-05 s⁻¹ and 23200 M⁻¹ s⁻¹.
The molecule B13 registered a dissociation constant Kd below 0.342 nM, a koff below 1e-05 s⁻¹ and an on-rate constant (kon) of 29200 M⁻¹ s⁻¹.
The matching figures for B14: 0.91 nM, 1.6e-05 s⁻¹ and 17600 M⁻¹ s⁻¹.
As for B15, binding was characterised by a dissociation constant (Kd) of 2.21 nM, the koff came to 6.23e-05 s⁻¹ and the kon was found to be 28200 M⁻¹ s⁻¹.
The matching figures for B16: below 0.831 nM, below 1e-05 s⁻¹ and 12000 M⁻¹ s⁻¹.
Consider B17, for which the Kd was 1.93 nM, the koff came to 1.18e-05 s⁻¹ and the association rate constant (kon) came out at 6090 M⁻¹ s⁻¹.
In the case of B18, the Kd was below 0.573 nM, the koff was below 1e-05 s⁻¹ and the kon is 17500 M⁻¹ s⁻¹.
For the molecule B19, the Kd is below 0.585 nM, the koff was below 1e-05 s⁻¹ and the kon worked out at 17100 M⁻¹ s⁻¹.
With B20, the dissociation constant (Kd) was below 0.414 nM, the koff is below 1e-05 s⁻¹ and the kon turned out to be 24200 M⁻¹ s⁻¹.
On the same counts, the results for B21 are 30.4 nM, 0.000378 s⁻¹ and 12400 M⁻¹ s⁻¹.
